One substance from article PMC7247576 can be followed below.

Common to all, as to test: EMSA
Common to all, as to conditions: tetrahydrofuran abasic residue (F); EMSA: 50 mM Tris-HCl pH 8.0, 100 mM NaCl, 1 mM DTT, 50 nM FAM-AP-DNA, 4 °C, 30 min; 5% native PAG. Fluorescence: 50 mM HEPES pH 8.0, 100 mM NaCl, 4 mM DTT …
On the technique in general: In EMSA bound probe runs differently from free probe, usually more slowly.

The test system of series [1] is APE1 (full-length) (Homo sapiens).
The subject of a further series is APE1NΔ35 (Homo sapiens).
The test system of a further series is APE1NΔ61 (Homo sapiens).

With “AP-DNA (32-mer duplex with synthetic abasic site)”, the K half in series [1] worked out at 120 nM; in the series on APE1NΔ35 (Homo sapiens) it was 200 nM; in the series on APE1NΔ61 (Homo sapiens) it was 210 nM.
